We go through 5 molecules from patent publication US20230051715A1 (MABWELL THERAPEUTICS, published 2023).

Substitutions are numbered along the chain they refer to. Names and notes keep the numbering of the source.

The target in test [1] is T1, C1s in normal cynomolgus monkey serum (CMS, CompTech NCYS) (cynomolgus monkey, UniProt A0A2K5VQX9 16-685).
T1 sequence: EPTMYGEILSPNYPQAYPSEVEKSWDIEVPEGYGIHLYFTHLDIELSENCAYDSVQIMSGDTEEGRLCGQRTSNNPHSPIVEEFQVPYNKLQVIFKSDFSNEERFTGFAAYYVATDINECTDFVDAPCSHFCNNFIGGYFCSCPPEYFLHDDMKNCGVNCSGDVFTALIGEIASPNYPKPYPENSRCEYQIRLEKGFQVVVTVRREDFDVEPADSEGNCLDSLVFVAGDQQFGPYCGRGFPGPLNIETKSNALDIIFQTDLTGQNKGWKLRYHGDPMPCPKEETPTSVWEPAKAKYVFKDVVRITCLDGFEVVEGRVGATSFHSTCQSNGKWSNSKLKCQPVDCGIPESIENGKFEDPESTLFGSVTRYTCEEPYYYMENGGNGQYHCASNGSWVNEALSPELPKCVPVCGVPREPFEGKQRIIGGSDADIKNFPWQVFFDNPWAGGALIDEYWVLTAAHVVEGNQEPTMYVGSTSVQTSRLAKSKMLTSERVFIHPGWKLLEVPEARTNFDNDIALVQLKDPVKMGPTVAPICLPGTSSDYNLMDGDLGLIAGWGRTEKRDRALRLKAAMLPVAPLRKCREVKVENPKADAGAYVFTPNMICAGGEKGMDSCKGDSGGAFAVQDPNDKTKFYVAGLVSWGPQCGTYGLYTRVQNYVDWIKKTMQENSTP
Put plainly: cell-based or functional assay.

The target in test [2] is T2, C1s in normal human serum (NHS, CompTech NHS) (human, UniProt P09871 16-688).
T2 sequence (looked up): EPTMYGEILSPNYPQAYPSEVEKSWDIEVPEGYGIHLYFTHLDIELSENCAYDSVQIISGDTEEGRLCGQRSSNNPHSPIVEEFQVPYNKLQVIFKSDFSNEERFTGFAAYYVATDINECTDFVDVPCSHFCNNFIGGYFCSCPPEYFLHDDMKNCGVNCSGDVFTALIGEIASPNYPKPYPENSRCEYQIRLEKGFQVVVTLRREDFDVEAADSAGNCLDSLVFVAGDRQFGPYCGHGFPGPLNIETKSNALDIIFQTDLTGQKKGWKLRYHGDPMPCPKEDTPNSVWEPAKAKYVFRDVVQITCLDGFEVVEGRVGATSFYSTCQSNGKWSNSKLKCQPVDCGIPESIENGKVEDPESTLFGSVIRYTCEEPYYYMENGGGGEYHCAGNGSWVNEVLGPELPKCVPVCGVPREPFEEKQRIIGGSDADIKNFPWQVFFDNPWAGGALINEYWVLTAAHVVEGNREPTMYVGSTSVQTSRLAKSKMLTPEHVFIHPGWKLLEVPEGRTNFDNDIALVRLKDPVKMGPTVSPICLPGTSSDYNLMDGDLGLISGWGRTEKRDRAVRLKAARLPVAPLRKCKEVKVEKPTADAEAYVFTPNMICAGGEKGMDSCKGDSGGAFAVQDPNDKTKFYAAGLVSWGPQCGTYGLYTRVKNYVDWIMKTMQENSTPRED
As to the kind of experiment: cell-based or functional assay.

The target in test [3] is T3, human C1s mutant M12 (G381E & G382E) (human, UniProt P09871 16-688).
T3 construct: The entry is the mutant itself
T3 sequence: T2 sequence (looked up) with G381E, G382E
As to the kind of experiment: ELISA, plate coated with human C1s mutant M12: G381E, G382E, OD450nm. The method, then:
ELISA was carried out by first coating 96-well plates with 200 ng/well of full-length or truncated C1s proteins overnight. The next morning, plates were blocked with SuperBlock T20 blocking buffer (Thermo Scientific 37536) for 1 h with gentle shaking. Then, various concentrations of anti-C1s antibodies diluted in SuperBlock T20 blocking buffer were added to the plates and incubated for 1 h with gentle shaking. Mouse IgG (Sigma-Aldrich 15381) and human IgG1 (BioXCell BP0297) were used as negative controls. The plates were washed before incubating with HRP conjugated secondary antibodies diluted in SuperBlock T20 blocking buffer (goat anti-mouse IgG (H+L) cross-adsorbed secondary antibody HRP (Invitrogen G-21040) or goat anti-human IgG antibody, HRP conjugate (Millipore AP309P)) for 1 h with gentle shaking. At last, the plates were washed and color developed with ELISA liquid HRP substrate (Sigma-Aldrich), followed by stopping the reaction with addition of 1M H₂SO₄ in the same volume as the ELISA liquid substrate. Bound antibody was measured by absorbance at OD₄₅₀ₙₘ.
Binding of anti-C1s antibodies to mutants M1-M20 of human C1s was measured by ELISA as described in Example 4, and results are shown in FIGS. 6B-6U. All anti-C1s humanized variants including hz2-7(H1L2), hz2-8(H1L2 G80A) and hz2-8(H1L2 G80A/T82A) maintained strong binding properties to the majority (16 out of 20) of C1s mutants including M1 (FIG. 6B), M2 (FIG. 6C), M3 (FIG. 6D). M4 (FIG. 6E), M7 (FIG. 6H), M8 (FIG. 6I), M10 (FIG. 6K), M11 (FIG. 6L), M12 (FIG. 6M), M13 (FIG. 6N), M15 (FIG. 6P), M16 (FIG. 6Q), M17 (FIG. 6R), M18 (FIG. 6S), M19 (FIG. 6T) and M20 (FIG. 6U).
(An ELISA detects its analyte on a solid surface through an enzyme-linked reagent.)

B1: Anti-C1s antibody 2-7 (antibody, human IgG1, kappa, V domains shown)
VH: EVKLEESGGGLVPPGGSMKLSCVASGFTFSNYFMNWVRQSPEKGLEWVAEIRLKFTNYATHYAESVEGRFTISRDDSKSSVYLQMNNLRAEDTGIYYCTRDYGSRNGYFDYWGQGTTLTVSS
VL: DIVMTQAAPSVPVTPGESVSISCRSSKSLLHSNGNTFLYWFLQRPGQSPQLLIYRMSNLASGVPDRFSGSGSGTAFTLRVSRVEAEDVGIYYCMQHLEYPYTFGGGTKLEIKT
notes: the HC/LC entries may hold it too; also called clone 2-7
Take B1: the “IC50, inhibition of IgM-induced C4 deposition from cynomolgus monkey serum” value in test [1] is roughly 0.3 µg/mL.

B2: Anti-C1s antibody hz2-7(H1L2) (antibody, V domains shown)
VH: EVQLLESGGGLVQPGGSLRLSCAASGFTFSNYFMNWVRQAPGKGLEWVSEIRLKFTNYATHYADSVKGRFTISRDDSKSTLYLQMNSLRAEDTAVYYCTRDYGSRNGYFDYWGQGTLVTVSS
VL: DIVMTQTPLSLPVTPGEPASISCRSSKSLLHSNGNTFLYWFLQKPGQSPQLLIYRMSNLASGVPDRFSGSGSGTDFTLKISRVEAEDVGVYYCMQHLEYPYTFGGGTKLEIKR
notes: Humanized, human IgG1 / kappa; also called hz2-7(1L2)
Broadly, the EC50 is the midpoint of the concentration-response curve. Turning to B2, in test [2], the “IC50, inhibition of IgM-induced C4 deposition from NHS” value (from here on “IC50, inhibition … from NHS”) was 1.1 µg/mL and the “IC50, inhibition of human complement-mediated lysis of EA” value was 4.1 µg/mL. Further, in test [1], the “IC50, inhibition of IgM-induced C4 deposition from CMS” value (from here on “IC50, inhibition … from CMS”) was 0.9 µg/mL and the “IC50, inhibition of cynomolgus monkey complement-mediated lysis of EA” value came to 0.8 µg/mL. The same molecule yielded a half-maximal effective concentration (EC50) in test [3] of 0.005 µg/mL.

B3: Anti-C1s antibody 2-8 (antibody, V domains shown)
VH: EVQLQQSGAELVRPGALVKLSCKASGFNIKEYYMHWVKQRPEQGLEWIGWIDPENGDTIYDPKFQGKASITADTSSNTAYLQLSSLTSEDTAVYYCARSRLFFAYWGQGTLVTVSA
VL: DIVMTQSHKFMSTSVGDRVSFTCKASQDVRTAVDWYQQKPGQSPKLLIYSASYRYTGVPDRFTGTGSGTDFTFTISSVQAEDLAVYFCQQQYTTPYTFGGGTKLEIKT
notes: the HC/LC entries may hold it too; also called clone 2-8
Consider B3, for which, in test [1], the “IC50, inhibition of IgM-induced C4 deposition from cynomolgus monkey serum” value is roughly 0.5 µg/mL.

B4: Anti-C1s antibody hz2-8 (H1L2 G80A) (antibody, V domains shown)
VH: QVQLVQSGAEVKKPGASVKVSCKASGFNIKEYYMHWVRQAPEQGLEWMGWIDPENADTIYAQKFQGRVTITADTSTNTAYMELSSLRSEDTAVYYCARSRLFFAYWGQGTLVTVSS
VL: DIQMTQSPKSLSASVGDRVTITCRASQDVRTALDWYQQKPGQSPKLLIYSASYRYSGVPSRFSGSGSGTDFTLTISSLQPEDFATYYCQQQYTTPYTFGQGTKLEIKR
notes: Humanized variant with G80A in HC CDR2 (already in the entry), human IgG1 / kappa
As for B4, in test [2], the “IC50, inhibition … from NHS” value is 0.5 µg/mL. The “IC50, inhibition … from CMS” value in test [1] amounted to 0.5 µg/mL. It took 0.005 µg/mL to reach a half-maximal effect in test [3] (EC50).

B5: Anti-C1s antibody hz2-8 (H1L2 G80A/T82A) (antibody, V domains shown)
VH: B4 VH with T58A
VL: B4 VL
notes: Humanized variant with G80A and T82A in HC CDR2 (already in the entry), human IgG1 / kappa
In the case of B5, in test [2], the “IC50, inhibition … from NHS” value was 0.4 µg/mL. Besides, the “IC50, inhibition … from CMS” value in test [1] stood at 0.4 µg/mL. Further, in test [3], a half-maximal effect (EC50) was put at 0.005 µg/mL.
